Patent US20220040297A1 (Chugai, published 2022)

Molecular target: T1, CD3ε homodimer protein (human, UniProt P07766 23-126, limits assumed, sulfo-tag or biotin label in some ECL assays)
T1 construct: also called human CD3ε homodimer protein; CD3 (CD3ε)
Assay: SPR, CD3ε homodimer on chip;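 also: biacore SPR with antibody variants flowed as analyte over amine-coupled CD3ε homodimer on a CM chip, bound amount of each single-residue H chain variant over that of parent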

T1 sequence (P07766 23-126 limits assumed): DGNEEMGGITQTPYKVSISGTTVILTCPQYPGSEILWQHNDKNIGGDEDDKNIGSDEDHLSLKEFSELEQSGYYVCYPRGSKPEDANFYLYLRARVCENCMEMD

Binder	ratio of amounts bound vs CE115HA000
CE115HA000 S30G (antibody, name in Kabat numbering, V domains shown) VH: QVQLVESGGGVVQPGRSLRLSCAASGFTFGNAWMHWVRQAPGKGLEWVAQIKAKSNNYATYYAESVKGRFTISRDDSKNSLYLQMNSLKTEDTAVYYCRYVHYGAYYGVDAWGQGTTVTVSS VL: DIVMTQSPLSLPVTPGEPASISCRSSQSLVHSNRNTYLHWYQQKPGQAPRLLIYKVSNRFSGVPDRFSGSGSGTDFTLKISRVEAEDVGVYYCGQGTQVPYTFGQGTKLEIK	1.01
CE115HA000 S52cG (antibody, name in Kabat numbering, V domains shown) VH: QVQLVESGGGVVQPGRSLRLSCAASGFTFSNAWMHWVRQAPGKGLEWVAQIKAKGNNYATYYAESVKGRFTISRDDSKNSLYLQMNSLKTEDTAVYYCRYVHYGAYYGVDAWGQGTTVTVSS VL: DIVMTQSPLSLPVTPGEPASISCRSSQSLVHSNRNTYLHWYQQKPGQAPRLLIYKVSNRFSGVPDRFSGSGSGTDFTLKISRVEAEDVGVYYCGQGTQVPYTFGQGTKLEIK	0.97
CE115HA000 S62E (antibody, name in Kabat numbering, V domains shown) VH: QVQLVESGGGVVQPGRSLRLSCAASGFTFSNAWMHWVRQAPGKGLEWVAQIKAKSNNYATYYAEEVKGRFTISRDDSKNSLYLQMNSLKTEDTAVYYCRYVHYGAYYGVDAWGQGTTVTVSS VL: DIVMTQSPLSLPVTPGEPASISCRSSQSLVHSNRNTYLHWYQQKPGQAPRLLIYKVSNRFSGVPDRFSGSGSGTDFTLKISRVEAEDVGVYYCGQGTQVPYTFGQGTKLEIK	0.92
CE115HA000 S52cF (antibody, name in Kabat numbering, V domains shown) VH: QVQLVESGGGVVQPGRSLRLSCAASGFTFSNAWMHWVRQAPGKGLEWVAQIKAKFNNYATYYAESVKGRFTISRDDSKNSLYLQMNSLKTEDTAVYYCRYVHYGAYYGVDAWGQGTTVTVSS VL: DIVMTQSPLSLPVTPGEPASISCRSSQSLVHSNRNTYLHWYQQKPGQAPRLLIYKVSNRFSGVPDRFSGSGSGTDFTLKISRVEAEDVGVYYCGQGTQVPYTFGQGTKLEIK	1.13
CE115HA000 S52cL (antibody, name in Kabat numbering, V domains shown) VH: QVQLVESGGGVVQPGRSLRLSCAASGFTFSNAWMHWVRQAPGKGLEWVAQIKAKLNNYATYYAESVKGRFTISRDDSKNSLYLQMNSLKTEDTAVYYCRYVHYGAYYGVDAWGQGTTVTVSS VL: DIVMTQSPLSLPVTPGEPASISCRSSQSLVHSNRNTYLHWYQQKPGQAPRLLIYKVSNRFSGVPDRFSGSGSGTDFTLKISRVEAEDVGVYYCGQGTQVPYTFGQGTKLEIK	0.98
CE115HA000 T57K (antibody, name in Kabat numbering, V domains shown) VH: QVQLVESGGGVVQPGRSLRLSCAASGFTFSNAWMHWVRQAPGKGLEWVAQIKAKSNNYAKYYAESVKGRFTISRDDSKNSLYLQMNSLKTEDTAVYYCRYVHYGAYYGVDAWGQGTTVTVSS VL: DIVMTQSPLSLPVTPGEPASISCRSSQSLVHSNRNTYLHWYQQKPGQAPRLLIYKVSNRFSGVPDRFSGSGSGTDFTLKISRVEAEDVGVYYCGQGTQVPYTFGQGTKLEIK	1.32
CE115HA000 T57A (antibody, name in Kabat numbering, V domains shown) VH: QVQLVESGGGVVQPGRSLRLSCAASGFTFSNAWMHWVRQAPGKGLEWVAQIKAKSNNYAAYYAESVKGRFTISRDDSKNSLYLQMNSLKTEDTAVYYCRYVHYGAYYGVDAWGQGTTVTVSS VL: DIVMTQSPLSLPVTPGEPASISCRSSQSLVHSNRNTYLHWYQQKPGQAPRLLIYKVSNRFSGVPDRFSGSGSGTDFTLKISRVEAEDVGVYYCGQGTQVPYTFGQGTKLEIK	0.98
CE115HA000 S62P (antibody, name in Kabat numbering, V domains shown) VH: QVQLVESGGGVVQPGRSLRLSCAASGFTFSNAWMHWVRQAPGKGLEWVAQIKAKSNNYATYYAEPVKGRFTISRDDSKNSLYLQMNSLKTEDTAVYYCRYVHYGAYYGVDAWGQGTTVTVSS VL: DIVMTQSPLSLPVTPGEPASISCRSSQSLVHSNRNTYLHWYQQKPGQAPRLLIYKVSNRFSGVPDRFSGSGSGTDFTLKISRVEAEDVGVYYCGQGTQVPYTFGQGTKLEIK	1
CE115HA000 S52cQ (antibody, name in Kabat numbering, V domains shown) VH: QVQLVESGGGVVQPGRSLRLSCAASGFTFSNAWMHWVRQAPGKGLEWVAQIKAKQNNYATYYAESVKGRFTISRDDSKNSLYLQMNSLKTEDTAVYYCRYVHYGAYYGVDAWGQGTTVTVSS VL: DIVMTQSPLSLPVTPGEPASISCRSSQSLVHSNRNTYLHWYQQKPGQAPRLLIYKVSNRFSGVPDRFSGSGSGTDFTLKISRVEAEDVGVYYCGQGTQVPYTFGQGTKLEIK	1.04
CE115HA000 S52cD (antibody, name in Kabat numbering, V domains shown) VH: QVQLVESGGGVVQPGRSLRLSCAASGFTFSNAWMHWVRQAPGKGLEWVAQIKAKDNNYATYYAESVKGRFTISRDDSKNSLYLQMNSLKTEDTAVYYCRYVHYGAYYGVDAWGQGTTVTVSS VL: DIVMTQSPLSLPVTPGEPASISCRSSQSLVHSNRNTYLHWYQQKPGQAPRLLIYKVSNRFSGVPDRFSGSGSGTDFTLKISRVEAEDVGVYYCGQGTQVPYTFGQGTKLEIK	0.6
CE115HA000 S77T (antibody, name in Kabat numbering, V domains shown) VH: QVQLVESGGGVVQPGRSLRLSCAASGFTFSNAWMHWVRQAPGKGLEWVAQIKAKSNNYATYYAESVKGRFTISRDDSKNTLYLQMNSLKTEDTAVYYCRYVHYGAYYGVDAWGQGTTVTVSS VL: DIVMTQSPLSLPVTPGEPASISCRSSQSLVHSNRNTYLHWYQQKPGQAPRLLIYKVSNRFSGVPDRFSGSGSGTDFTLKISRVEAEDVGVYYCGQGTQVPYTFGQGTKLEIK	0.9
CE115HA000 T57I (antibody, name in Kabat numbering, V domains shown) VH: QVQLVESGGGVVQPGRSLRLSCAASGFTFSNAWMHWVRQAPGKGLEWVAQIKAKSNNYAIYYAESVKGRFTISRDDSKNSLYLQMNSLKTEDTAVYYCRYVHYGAYYGVDAWGQGTTVTVSS VL: DIVMTQSPLSLPVTPGEPASISCRSSQSLVHSNRNTYLHWYQQKPGQAPRLLIYKVSNRFSGVPDRFSGSGSGTDFTLKISRVEAEDVGVYYCGQGTQVPYTFGQGTKLEIK	0.61
CE115HA000 T28S (antibody, name in Kabat numbering, V domains shown) VH: QVQLVESGGGVVQPGRSLRLSCAASGFSFSNAWMHWVRQAPGKGLEWVAQIKAKSNNYATYYAESVKGRFTISRDDSKNSLYLQMNSLKTEDTAVYYCRYVHYGAYYGVDAWGQGTTVTVSS VL: DIVMTQSPLSLPVTPGEPASISCRSSQSLVHSNRNTYLHWYQQKPGQAPRLLIYKVSNRFSGVPDRFSGSGSGTDFTLKISRVEAEDVGVYYCGQGTQVPYTFGQGTKLEIK	0.91
CE115HA000 S52cK (antibody, name in Kabat numbering, V domains shown) VH: QVQLVESGGGVVQPGRSLRLSCAASGFTFSNAWMHWVRQAPGKGLEWVAQIKAKKNNYATYYAESVKGRFTISRDDSKNSLYLQMNSLKTEDTAVYYCRYVHYGAYYGVDAWGQGTTVTVSS VL: DIVMTQSPLSLPVTPGEPASISCRSSQSLVHSNRNTYLHWYQQKPGQAPRLLIYKVSNRFSGVPDRFSGSGSGTDFTLKISRVEAEDVGVYYCGQGTQVPYTFGQGTKLEIK	1.19
CE115HA000 S52cA (antibody, name in Kabat numbering, V domains shown) VH: QVQLVESGGGVVQPGRSLRLSCAASGFTFSNAWMHWVRQAPGKGLEWVAQIKAKANNYATYYAESVKGRFTISRDDSKNSLYLQMNSLKTEDTAVYYCRYVHYGAYYGVDAWGQGTTVTVSS VL: DIVMTQSPLSLPVTPGEPASISCRSSQSLVHSNRNTYLHWYQQKPGQAPRLLIYKVSNRFSGVPDRFSGSGSGTDFTLKISRVEAEDVGVYYCGQGTQVPYTFGQGTKLEIK	0.96
CE115HA000 S62D (antibody, name in Kabat numbering, V domains shown) VH: QVQLVESGGGVVQPGRSLRLSCAASGFTFSNAWMHWVRQAPGKGLEWVAQIKAKSNNYATYYAEDVKGRFTISRDDSKNSLYLQMNSLKTEDTAVYYCRYVHYGAYYGVDAWGQGTTVTVSS VL: DIVMTQSPLSLPVTPGEPASISCRSSQSLVHSNRNTYLHWYQQKPGQAPRLLIYKVSNRFSGVPDRFSGSGSGTDFTLKISRVEAEDVGVYYCGQGTQVPYTFGQGTKLEIK	0.92
CE115HA000 S62K (antibody, name in Kabat numbering, V domains shown) VH: QVQLVESGGGVVQPGRSLRLSCAASGFTFSNAWMHWVRQAPGKGLEWVAQIKAKSNNYATYYAEKVKGRFTISRDDSKNSLYLQMNSLKTEDTAVYYCRYVHYGAYYGVDAWGQGTTVTVSS VL: DIVMTQSPLSLPVTPGEPASISCRSSQSLVHSNRNTYLHWYQQKPGQAPRLLIYKVSNRFSGVPDRFSGSGSGTDFTLKISRVEAEDVGVYYCGQGTQVPYTFGQGTKLEIK	1.19
CE115HA000 S74P (antibody, name in Kabat numbering, V domains shown) VH: QVQLVESGGGVVQPGRSLRLSCAASGFTFSNAWMHWVRQAPGKGLEWVAQIKAKSNNYATYYAESVKGRFTISRDDPKNSLYLQMNSLKTEDTAVYYCRYVHYGAYYGVDAWGQGTTVTVSS VL: DIVMTQSPLSLPVTPGEPASISCRSSQSLVHSNRNTYLHWYQQKPGQAPRLLIYKVSNRFSGVPDRFSGSGSGTDFTLKISRVEAEDVGVYYCGQGTQVPYTFGQGTKLEIK	0.91
CE115HA000 T28D (antibody, name in Kabat numbering, V domains shown) VH: QVQLVESGGGVVQPGRSLRLSCAASGFDFSNAWMHWVRQAPGKGLEWVAQIKAKSNNYATYYAESVKGRFTISRDDSKNSLYLQMNSLKTEDTAVYYCRYVHYGAYYGVDAWGQGTTVTVSS VL: DIVMTQSPLSLPVTPGEPASISCRSSQSLVHSNRNTYLHWYQQKPGQAPRLLIYKVSNRFSGVPDRFSGSGSGTDFTLKISRVEAEDVGVYYCGQGTQVPYTFGQGTKLEIK	0.56
CE115HA000 S52cV (antibody, name in Kabat numbering, V domains shown) VH: QVQLVESGGGVVQPGRSLRLSCAASGFTFSNAWMHWVRQAPGKGLEWVAQIKAKVNNYATYYAESVKGRFTISRDDSKNSLYLQMNSLKTEDTAVYYCRYVHYGAYYGVDAWGQGTTVTVSS VL: DIVMTQSPLSLPVTPGEPASISCRSSQSLVHSNRNTYLHWYQQKPGQAPRLLIYKVSNRFSGVPDRFSGSGSGTDFTLKISRVEAEDVGVYYCGQGTQVPYTFGQGTKLEIK	0.93
